Measurements from US20050032118A1, “Nitrophenyl derivatives that can be activated by light” (priority 1996, published 2005).

Test: Photolysis of nitrobenzyl-BSA conjugates with ultraviolet light (365 nm), residues counted by spectrophotometry
Details: for residues removed on irradiation with light: BSA as model protein, 8-15 residues bound, approximately 10 mins; for NBE residues cleaved from the protein / NBE residues cleaved: UV 10 min

Row | residues removed on irradiation with light | Molecule | NBE residues cleaved from the protein (3 NBE residues bound per protein molecule (50 mg sample)) [residues] | NBE residues cleaved (3.5 NBE residues per BSA molecule) [residues] | NBE residues cleaved (6.9 NBE residues per BSA molecule) [residues] | NBE residues cleaved (10.8 NBE residues per BSA molecule) [residues] | NBE residues cleaved (14.5 NBE residues per BSA molecule) [residues] | NBE residues cleaved from the protein (14.8 NBE residues bound per protein molecule (25 mg sample)) [residues]
1 | ~65% | O=[N+]([O-])c1ccccc1CO [NBA, 2-nitrobenzyl alcohol] | – | – | – | – | – | –
2 | about 95% | CC(O)Cc1ccccc1[N+](=O)[O-] (centres unmarked) [NBE, 1-(2-nitrobenzyl)ethanol] | – | – | – | – | – | –
3 | – | NBE-BSA conjugates: bovine serum albumin randomly coated with NBE residues through nitrobenzyloxycarbonyl chloride | 3 | 2.5 | 6.0 | 10 | 14 | 14
